Common to all, as to assay: SPR ProteOn XPR36, biotinylated antigen captured on NLC chip, purified Fab as analyte, 1:1 Langmuir
Assay [1] deals with T1, GST huTnC fn5 A1234 BC fn6 B (human, UniProt P24821 984-1798, biotinylated at the C-terminal Avi-tag).
T1 construct: also called Human GST-fused TnC fn5 A1234 BC fn6
T1 sequence: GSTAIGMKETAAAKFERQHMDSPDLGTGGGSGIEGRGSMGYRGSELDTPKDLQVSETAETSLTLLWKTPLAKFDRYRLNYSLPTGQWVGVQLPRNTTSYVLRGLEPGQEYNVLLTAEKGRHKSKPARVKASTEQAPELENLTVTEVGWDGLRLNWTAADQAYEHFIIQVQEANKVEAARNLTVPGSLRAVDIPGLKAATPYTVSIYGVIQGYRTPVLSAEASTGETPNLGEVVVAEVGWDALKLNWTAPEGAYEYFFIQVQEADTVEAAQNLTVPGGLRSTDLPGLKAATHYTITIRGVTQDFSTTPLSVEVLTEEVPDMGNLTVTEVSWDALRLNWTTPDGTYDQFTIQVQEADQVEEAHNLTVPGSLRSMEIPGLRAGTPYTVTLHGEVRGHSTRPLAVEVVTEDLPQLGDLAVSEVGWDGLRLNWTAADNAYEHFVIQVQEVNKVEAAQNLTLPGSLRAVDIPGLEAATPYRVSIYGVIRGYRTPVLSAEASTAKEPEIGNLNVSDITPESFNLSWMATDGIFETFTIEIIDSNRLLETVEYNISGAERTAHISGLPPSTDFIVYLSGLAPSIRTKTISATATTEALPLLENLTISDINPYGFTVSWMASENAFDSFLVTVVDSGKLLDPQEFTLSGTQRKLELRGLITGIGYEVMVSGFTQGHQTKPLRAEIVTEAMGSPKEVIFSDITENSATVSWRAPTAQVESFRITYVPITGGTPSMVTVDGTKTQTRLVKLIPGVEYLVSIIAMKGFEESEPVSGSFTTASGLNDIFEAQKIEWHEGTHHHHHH
Here is the method: (§1) Immobilization of antigens (ligand): Recombinant antigens were diluted with PBST (10 mM phosphate, 150 mM sodium chloride pH 7.4, 0.005% Tween 20) to 10 μg/ml, then injected at 30 μl/minute in vertical orientation. Injection of analytes: For ‘one-shot kinetics’ measurements, injection direction was changed to horizontal orientation, two-fold dilution series of purified Fab were injected simultaneously along separate channels 1-5, with association times of 200 s, and dissociation times of 240 s, respectively. Buffer (PBST) was injected along the sixth channel to provide an “in-line” blank for referencing. Association rate constants (kₒₙ) and dissociation rate constants (koff) were calculated using a simple one-to-one Langmuir binding model in ProteOn Manager v3.1 software by simultaneously fitting the association and dissociation sensorgrams. The equilibrium dissociation constant (KD) was calculated as the ratio koff/kₒₙ.

The target in assay [2] is T2, GST TnC hu fn5 B-C fn6 B (human, biotinylated at the C-terminal Avi-tag).
T2 chain: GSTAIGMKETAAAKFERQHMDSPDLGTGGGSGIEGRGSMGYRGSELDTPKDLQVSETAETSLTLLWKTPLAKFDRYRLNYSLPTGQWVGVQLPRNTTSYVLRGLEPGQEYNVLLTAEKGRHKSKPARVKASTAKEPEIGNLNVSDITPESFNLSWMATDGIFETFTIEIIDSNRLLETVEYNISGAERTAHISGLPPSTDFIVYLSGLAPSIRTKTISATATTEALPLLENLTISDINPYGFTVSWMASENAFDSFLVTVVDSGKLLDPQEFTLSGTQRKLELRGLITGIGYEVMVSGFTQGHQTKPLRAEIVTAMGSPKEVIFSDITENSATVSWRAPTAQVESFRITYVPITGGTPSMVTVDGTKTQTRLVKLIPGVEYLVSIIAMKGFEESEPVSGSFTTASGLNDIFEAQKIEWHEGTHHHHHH
Here is the method: as §1

The target in assay [3] is T3, GST huTnC fn5 mu A124 BC hu fn6 B (human fn5 and fn6, murine A124 BC).
T3 chain: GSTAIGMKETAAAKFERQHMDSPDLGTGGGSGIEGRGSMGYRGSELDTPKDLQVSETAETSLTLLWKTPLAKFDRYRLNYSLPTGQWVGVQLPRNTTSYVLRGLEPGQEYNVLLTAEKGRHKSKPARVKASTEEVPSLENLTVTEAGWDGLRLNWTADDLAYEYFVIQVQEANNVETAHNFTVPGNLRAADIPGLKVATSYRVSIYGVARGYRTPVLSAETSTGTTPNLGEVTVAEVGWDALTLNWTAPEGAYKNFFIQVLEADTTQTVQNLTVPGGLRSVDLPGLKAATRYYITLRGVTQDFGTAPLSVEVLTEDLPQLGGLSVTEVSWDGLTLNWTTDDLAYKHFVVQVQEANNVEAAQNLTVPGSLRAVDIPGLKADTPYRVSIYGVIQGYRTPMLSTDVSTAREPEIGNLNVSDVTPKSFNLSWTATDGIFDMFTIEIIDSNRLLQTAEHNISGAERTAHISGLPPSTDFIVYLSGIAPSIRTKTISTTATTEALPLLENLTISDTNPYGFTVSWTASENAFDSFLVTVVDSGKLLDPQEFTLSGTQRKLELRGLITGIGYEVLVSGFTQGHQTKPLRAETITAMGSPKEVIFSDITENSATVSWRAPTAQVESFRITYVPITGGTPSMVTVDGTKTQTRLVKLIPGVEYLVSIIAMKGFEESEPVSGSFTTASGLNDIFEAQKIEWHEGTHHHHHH
Here is the method:
as §1

The target of assay [4] is T4, GST huTnC fn5 A1234 fn6 B (human, biotinylated at the C-terminal Avi-tag).
T4 chain: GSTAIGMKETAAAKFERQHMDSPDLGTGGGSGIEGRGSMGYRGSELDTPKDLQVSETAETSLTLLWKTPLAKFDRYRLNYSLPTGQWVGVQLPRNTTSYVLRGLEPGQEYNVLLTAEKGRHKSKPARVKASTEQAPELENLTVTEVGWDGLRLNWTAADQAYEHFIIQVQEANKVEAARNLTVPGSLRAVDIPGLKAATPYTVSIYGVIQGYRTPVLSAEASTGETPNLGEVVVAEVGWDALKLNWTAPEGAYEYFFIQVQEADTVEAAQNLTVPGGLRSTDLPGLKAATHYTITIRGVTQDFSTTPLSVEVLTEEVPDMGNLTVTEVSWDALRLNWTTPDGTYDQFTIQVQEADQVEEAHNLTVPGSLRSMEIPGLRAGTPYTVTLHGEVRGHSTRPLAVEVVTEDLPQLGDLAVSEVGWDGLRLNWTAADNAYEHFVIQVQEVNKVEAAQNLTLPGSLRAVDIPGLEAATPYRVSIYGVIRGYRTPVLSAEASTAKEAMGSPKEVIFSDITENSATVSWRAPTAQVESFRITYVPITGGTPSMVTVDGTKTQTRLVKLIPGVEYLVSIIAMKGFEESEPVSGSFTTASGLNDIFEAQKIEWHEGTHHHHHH
Here is the method:
as §1

Assay [5] deals with T5, huTnC A4 B (human, biotinylated at the C-terminal Avi-tag).
T5 chain: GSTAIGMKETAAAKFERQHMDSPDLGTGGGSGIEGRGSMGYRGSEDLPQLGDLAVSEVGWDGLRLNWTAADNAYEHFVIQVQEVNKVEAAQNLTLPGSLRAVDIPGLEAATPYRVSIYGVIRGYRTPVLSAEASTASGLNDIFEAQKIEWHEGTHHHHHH
Here is the method:
as §1

Assay [6] deals with T6, huTnC A1 B (human, biotinylated at the C-terminal Avi-tag).
T6 chain: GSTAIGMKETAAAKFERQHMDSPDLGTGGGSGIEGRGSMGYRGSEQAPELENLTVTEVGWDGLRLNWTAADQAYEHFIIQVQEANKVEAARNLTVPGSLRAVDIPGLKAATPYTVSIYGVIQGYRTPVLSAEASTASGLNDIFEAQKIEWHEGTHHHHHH
Here is the method:
as §1

B1: anti-TnC clone 11C7, purified Fab (Fab, V domains shown)
VH: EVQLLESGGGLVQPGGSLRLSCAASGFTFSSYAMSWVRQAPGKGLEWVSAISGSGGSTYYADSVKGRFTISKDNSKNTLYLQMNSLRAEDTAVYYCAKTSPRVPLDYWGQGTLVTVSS
VL: SSELTQDPAVSVALGQTVRVTCQGDSLRSYYASWYQQKPGQAPVLVIYGKNNRPSGIPDRFSGSSSGNTASLTITGAQAEDEADYYCNSINSTRNEVFGGGTKLTVL
With B1, the Kd (usually the free concentration of one partner at which half of the binding sites on the other are occupied at equilibrium, for simple one-to-one binding) was 2.3 nM in assay [1], 1 nM in assay [2] and 1.9 nM in assay [3].

B2: anti-TnC clone 18D4, purified Fab (Fab, V domains shown)
VH: QVQLVQSGAEVKKPGSSVKVSCKASGGTFSSYAISWVRQAPGQGLEWMGGIIPIFGTANYAQKFQGRVTITADKSTSTAYMELSSLRSEDTAVYYCAKGNFYGGLDYWGQGTTVTVSS
VL: DIQMTQSPSTLSASVGDRVTITCRASQSISSWLAWYQQKPGKAPKLLIYDASSLESGVPSRFSGSGSGTEFTLTISSLQPDDFATYYCQQNKKFPSGTFGQGTKVEIK
Take B2: the Kd in assay [1] was determined as 4 nM; in assay [4], 5 nM; in assay [5], 2 nM; in assay [6] it was 5.6 nM; in assay [3] it was 11.2 nM.

The record behind these values is patent US20200277392A1 (Hoffmann-La Roche, published 2020).
